Consider 27 proteins from the supplement of paper PMC10567573.

This data set is described as follows: protein stability index of a GFP-peptide fusion (GPS, HEK-293T) (PSI 1-6); higher = more stable. Particulars: c terminus: a fixed tail appended.
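Further: lentivirally expressed fusions sorted by FACS into six bins by GFP to DsRed ratio, PSI derived from sequencing read proportions per bin multiplied by bin number.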

B1: SMTNL2 WT (peptide)
chain: AFTMAENLANCERLIEVEDMMVMG
B1: the protein stability index (parent: IOH43320_46) came to 2.04.

B2: GFOD1 WT (peptide)
chain: EEAEELAKEMSVPFYTSRIDEVLL
In the case of B2, the protein stability index (parent: IOH42390_7) is 3.76.

B3: INTS3 WT (peptide)
chain: AQLQALRQKEVDFCISLLRERFME
As for B3, the protein stability index (parent: IOH41890_38) is 2.31.

B4: SMTNL2 WT (peptide)
chain: QKNFELAFTMAENLANCERLIEVE
Regarding B4, the protein stability index (parent: IOH43320_45) stood at 1.84.

B5: BTBD10 WT (peptide)
chain: DRKLHSRPRKLYKHSSTSSRIAKG
Turning to B5, where the note is “parent: IOH43395_4”, the protein stability index is 3.86.

B6: BTBD10 WT (peptide)
chain: FVYENAKEGARNIRTSERVTLIVD
With B6, the protein stability index (parent: IOH43395_26) stood at 1.94.

B7: IRX6 WT (peptide)
chain: YPCLEKPRIWSLAHTATASAVEGA
B7: for the setting “parent: IOH43040_58”, the protein stability index came out at 2.44.

B8: SCNN1D WT (peptide)
chain: IRVMVHGRNHTPFLGHHSFSVRPG
In the case of B8, where the note is “parent: IOH42569_55”, the protein stability index worked out at 2.25.

B9: INTS3 WT (peptide)
chain: DLNSKGKKREFRFHPIKETVVEEP
As to B9, the protein stability index (parent: IOH41890_91) is 2.23.

B10: PLAGL1 WT (peptide)
chain: CKDFLCQFCAQRFGRKDHLTRHTK
As for B10, the protein stability index (parent: IOH42591_31) came out at 2.02.

B11: INTS3 WT (peptide)
chain: YPPLEGHVRQGVFSSLNHIVEKRV
Consider B11, for which the protein stability index (parent: IOH41890_75) came out at 2.53.

B12: SCNN1D WT (peptide)
chain: FLGHHSFSVRPGTEATISIREDEV
For B12, the protein stability index (parent: IOH42569_57) turned out to be 1.72.

B13: GFOD1 WT (peptide)
chain: SDDFCTFQMVLEGGVCCTVTLNFN
With B13, the protein stability index (parent: IOH42390_37) turned out to be 3.15.

B14: SPACA3 WT (peptide)
chain: FTSGFNAAALDYEADGSTNNGIFQ
For the protein B14, the protein stability index (parent: IOH42995_21) was determined as 1.89.

B15: INTS3 WT (peptide)
chain: FHPIKETVVEEPVDITPYLDQLDE
For the protein B15, under “parent: IOH41890_93”, the protein stability index was found to be 3.32.

B16: TTC32 WT (peptide)
chain: YSAYIRRCACAASSDESPGSKCSP
For the protein B16, the protein stability index (parent: IOH43157_6) was 1.99.

B17: INTS3 WT (peptide)
chain: EEITEESLEESVGKPLYLIFRNLC
Take B17: the protein stability index (parent: IOH41890_107) came out at 2.68.

B18: INTS3 WT (peptide)
chain: KKREFRFHPIKETVVEEPVDITPY
On to B18, for which the protein stability index (parent: IOH41890_92) worked out at 1.94.

B19: PLAGL1 WT (peptide)
chain: DPNKMAFGCEECGKKYNTMLGYKR
On to B19, for which, under “parent: IOH42591_15”, the protein stability index was 2.34.

B20: SCNN1D WT (peptide)
chain: FYRLYQDLETHRLPCTSRCPRPCR
Take B20: the protein stability index (parent: IOH42569_73) came out at 2.21.

B21: PLAGL1 WT (peptide)
chain: LELGSTEVLLDHLKAHAEEKPPSG
Regarding B21, the protein stability index (parent: IOH42591_22) was found to be 4.44.

B22: PLAGL1 WT (peptide)
chain: EKPPSGTKEKKHQCDHCERCFYTR
Take B22: the protein stability index (parent: IOH42591_25) worked out at 3.58.

B23: TPPP WT (peptide)
chain: LCKDCQVIDGRNVTVTDVDIVFSK
As for B23, the protein stability index (parent: IOH43477_14) was found to be 2.25.

B24: SCNN1D WT (peptide)
chain: RRPSPVLRHLELLDEFARENIDSL
Take B24: for the setting “parent: IOH42569_24”, the protein stability index was found to be 2.6.

B25: PLAGL1 WT (peptide)
chain: TKEKKHQCDHCERCFYTRKDVRRH
For B25, the protein stability index (parent: IOH42591_26) worked out at 3.45.

B26: INTS3 WT (peptide)
chain: FSDDEEDLNSKGKKREFRFHPIKE
Take B26: the protein stability index (parent: IOH41890_90) was 2.85.

B27: SMTNL2 WT (peptide)
chain: ETAAGKGKGEARARLKRSQSFGVA
With B27, the protein stability index (parent: IOH43320_31) came to 4.31.
